{
  "source": "patent US20250367120A1",
  "about": "“PHARMACEUTICAL COMPOSITION AND METHOD FOR PRODUCING SAME” (SUNSHO PHARMACEUTICAL CO., LTD., priority 2022, published 2025)",
  "assay": "Area under the curve (AUC) and increase ratio (ER) of FD-4 in plasma after oral administration to Wistar rats",
  "protocol": "Next, FD-4 was orally administered to Wistar rats using an oral sonde so that the dosage was 0.3 mg/kg. After the administration of the sample, blood was collected six times in total until six hours after the administration of the sample, and plasma was fractionated.\nIt is noted that “AUCt” is AUC (ng·h/mL) of the test preparation, and “dosage t” is dosage (mg/kg) of the test preparation (target data of the test preparation obtained in the above 2).",
  "data": [
    {"substance": "fluorescein isothiocyanate-dextran 4 [Comparative Example 4]", "values": [
      {"measurement": "AUC", "setting": "Wistar rats, FD-4 dosage 0.3 mg/kg, up to 6 hr, linear trapezoidal method", "result": 24.3, "unit": "ng·h/mL"},
      {"measurement": "AUCs (reference data of standard preparation)", "setting": "rat, FD-4 dosage 0.3 mg/kg", "result": 24.3, "unit": "ng·h/mL"},
      {"measurement": "AUC", "setting": "rat, FD-4 dosage 5.0 mg/kg", "result": 390.5, "unit": "ng·h/mL"}
    ]}
  ]
}
